± gives the uncertainty stated by the source.

First the molecules themselves.
B1: SH3 and PX domain-containing protein 2B, residues 155 to 209; numbered along this chain, A1X283 (parent)
chain: EQYVVVANYQKQESSEISLSVGQVVDIIEKNESGWWFVSTAEEQGWVPATCLEGQ

In this data set the parent is B1. Description: abundance fitness (aPCA) (normalised: wild type 0, dead -1); higher = more abundant; growth selection in yeast, the domain comes from the species named. As to conditions: Homo sapiens.
In the case of EQYVVVANYQKQESSEISLSVGQVVDIIEKNESGWWFVSTAEEDGWVPATCLEGQ, the abundance fitness is -0.14 ± 0.11.

Turning to EQYVVVANYQKQESSEISLSVGQVVDIIEKNESGWWFVSTAEEHGWVPATCLEGQ, the abundance fitness is -0.085 ± 0.18.

On to EQYVVVANYQKQESSEISLSVGQVVDIIEKNESGWWFVSTAEEYGWVPATCLEGQ, for which the abundance fitness is -0.376 ± 0.19.

For EQYVVVANYQKQESSEISLSVGQVVDIIEKNESGWWFVSTAEEEGWVPATCLEGQ, the abundance fitness was -0.143 ± 0.12.

On to EQYVVVANYQKQESSEISLSVGQVVDIIEKNESGWWFVSTAEEFGWVPATCLEGQ, for which the abundance fitness was -0.207 ± 0.19.

Regarding EQYVVVANYQKQESSEISLSVGQVVDIIEKNESGWWFVSTAEECGWVPATCLEGQ, the abundance fitness was -0.216 ± 0.13.

On to EQYVVVANYQKQESSEISLSVGQVVDIIEKNESGWWFVSTAEEAGWVPATCLEGQ, for which the abundance fitness was -0.187 ± 0.1.

Take EQYVVVANYQKQESSEISLSVGQVVDIIEKNESGWWFVSTAEERGWVPATCLEGQ: the abundance fitness came to 0.001 ± 0.06.

With EQYVVVANYQKQESSEISLSVGQVVDIIEKNESGWWFVSTAEETGWVPATCLEGQ, the abundance fitness was -0.101 ± 0.11.

In the case of EQYVVVANYQKQESSEISLSVGQVVDIIEKNESGWWFVSTAEEIGWVPATCLEGQ, the abundance fitness is -0.208 ± 0.28.

Take EQYVVVANYQKQESSEISLSVGQVVDIIEKNESGWWFVSTAEESGWVPATCLEGQ: the abundance fitness is -0.136 ± 0.074.

For EQYVVVANYQKQESSEISLSVGQVVDIIEKNESGWWFVSTAEEMGWVPATCLEGQ, the abundance fitness was -0.122 ± 0.13.

In the case of EQYVVVANYQKQESSEISLSVGQVVDIIEKNESGWWFVSTAEEKGWVPATCLEGQ, the abundance fitness was -0.106 ± 0.12.

For EQYVVVANYQKQESSEISLSVGQVVDIIEKNESGWWFVSTAEEVGWVPATCLEGQ, the abundance fitness was -0.225 ± 0.1.

For EQYVVVANYQKQESSEISLSVGQVVDIIEKNESGWWFVSTAEEGGWVPATCLEGQ, the abundance fitness was -0.151 ± 0.061.

Turning to EQYVVVANYQKQESSEISLSVGQVVDIIEKNESGWWFVSTAEEPGWVPATCLEGQ, the abundance fitness was -0.807 ± 0.22.

Consider EQYVVVANYQKQESSEISLSVGQVVDIIEKNESGWWFVSTAEELGWVPATCLEGQ, for which the abundance fitness is -0.337 ± 0.089.

Consider EQYVVVANYQKQESSEISLSVGQVVDIIEKNESGWWFVSTAEEQGWRPATCLEGQ, for which the abundance fitness was -0.72 ± 0.093.

EQYVVVANYQKQESSEISLSVGQVVDIIEKNESGWWFVSTAEEQGWLPATCLEGQ: the abundance fitness was -0.319 ± 0.076.

EQYVVVANYQKQESSEISLSVGQVVDIIEKNESGWWFVSTAEEQGWHPATCLEGQ: the abundance fitness was -0.967 ± 0.27.

On to EQYVVVANYQKQESSEISLSVGQVVDIIEKNESGWWFVSTAEEQGWWPATCLEGQ, for which the abundance fitness is -1.11 ± 0.18.

On to EQYVVVANYQKQESSEISLSVGQVVDIIEKNESGWWFVSTAEEQGWKPATCLEGQ, for which the abundance fitness is -0.929 ± 0.25.

For EQYVVVANYQKQESSEISLSVGQVVDIIEKNESGWWFVSTAEEQGWGPATCLEGQ, the abundance fitness was -0.493 ± 0.073.

In the case of EQYVVVANYQKQESSEISLSVGQVVDIIEKNESGWWFVSTAEEQGWAPATCLEGQ, the abundance fitness is -0.106 ± 0.083.

For the variant EQYVVVANYQKQESSEISLSVGQVVDIIEKNESGWWFVSTAEEQGWNPATCLEGQ, the abundance fitness was -1.05 ± 0.23.

With EQYVVVANYQKQESSEISLSVGQVVDIIEKNESGWWFVSTAEEQGWYPATCLEGQ, the abundance fitness was -0.45 ± 0.13.

For the variant EQYVVVANYQKQESSEISLSVGQVVDIIEKNESGWWFVSTAEEQGWCPATCLEGQ, the abundance fitness came to 0.001 ± 0.089.

As to EQYVVVANYQKQESSEISLSVGQVVDIIEKNESGWWFVSTAEEQGWSPATCLEGQ, the abundance fitness is -0.567 ± 0.098.

For EQYVVVANYQKQESSEISLSVGQVVDIIEKNESGWWFVSTAEEQGWEPATCLEGQ, the abundance fitness was -0.776 ± 0.14.

As to EQYVVVANYQKQESSEISLSVGQVVDIIEKNESGWWFVSTAEEQGWDPATCLEGQ, the abundance fitness is -1.1 ± 0.22.

On to EQYVVVANYQKQESSEISLSVGQVVDIIEKNESGWWFVSTAEEQGWPPATCLEGQ, for which the abundance fitness is -0.922 ± 0.18.

With EQYVVVANYQKQESSEISLSVGQVVDIIEKNESGWWFVSTAEEQGWMPATCLEGQ, the abundance fitness is -0.453 ± 0.15.

Take EQYVVVANYQKQESSEISLSVGQVVDIIEKNESGWWFVSTAEEQGWFPATCLEGQ: the abundance fitness is -0.229 ± 0.097.

For the variant EQYVVVANYQKQESSEISLSVGQVVDIIEKNESGWWFVSTAEEQGWTPATCLEGQ, the abundance fitness was -0.552 ± 0.13.

EQYVVVANYQKQESSEISLSVGQVVDIIEKNESGWWFVSTAEEQGWIPATCLEGQ: the abundance fitness amounted to 0.11 ± 0.21.

Consider EQYVVVANYQKQESSEISLSVGQVVDIIEKNESGWWFVSTAEEQGGVPATCLEGQ, for which the abundance fitness was -1.08 ± 0.1.

For EQYVVVANYQKQESSEISLSVGQVVDIIEKNESGWWFVSTAEEQGYVPATCLEGQ, the abundance fitness is -0.051 ± 0.22.

Take EQYVVVANYQKQESSEISLSVGQVVDIIEKNESGWWFVSTAEEQGFVPATCLEGQ: the abundance fitness was -0.036 ± 0.23.

Regarding EQYVVVANYQKQESSEISLSVGQVVDIIEKNESGWWFVSTAEEQGRVPATCLEGQ, the abundance fitness is -0.17 ± 0.083.

For the variant EQYVVVANYQKQESSEISLSVGQVVDIIEKNESGWWFVSTAEEQGQVPATCLEGQ, the abundance fitness is -0.37 ± 0.18.

EQYVVVANYQKQESSEISLSVGQVVDIIEKNESGWWFVSTAEEQGKVPATCLEGQ: the abundance fitness is -0.273 ± 0.14.

On to EQYVVVANYQKQESSEISLSVGQVVDIIEKNESGWWFVSTAEEQGTVPATCLEGQ, for which the abundance fitness is -0.437 ± 0.096.

Take EQYVVVANYQKQESSEISLSVGQVVDIIEKNESGWWFVSTAEEQGEVPATCLEGQ: the abundance fitness is -0.91 ± 0.14.

EQYVVVANYQKQESSEISLSVGQVVDIIEKNESGWWFVSTAEEQGMVPATCLEGQ: the abundance fitness was -0.039 ± 0.095.

As for EQYVVVANYQKQESSEISLSVGQVVDIIEKNESGWWFVSTAEEQGIVPATCLEGQ, the abundance fitness is -0.299 ± 0.16.

With EQYVVVANYQKQESSEISLSVGQVVDIIEKNESGWWFVSTAEEQGCVPATCLEGQ, the abundance fitness is -0.233 ± 0.3.

For EQYVVVANYQKQESSEISLSVGQVVDIIEKNESGWWFVSTAEEQGAVPATCLEGQ, the abundance fitness is -0.599 ± 0.086.

With EQYVVVANYQKQESSEISLSVGQVVDIIEKNESGWWFVSTAEEQGDVPATCLEGQ, the abundance fitness was -0.652 ± 0.2.

The values above are taken from the Human Domainome abundance scans (Beltran et al. 2025).
